Laboratory results: PMC10786891, “Massively parallel profiling of RNA-targeting CRISPR-Cas13d”

T1: EsCas13d, nuclease-dead (Eubacterium siraeum, UniProt B0MS50, R295A;H300A;R849A;H854A)
T1 sequence: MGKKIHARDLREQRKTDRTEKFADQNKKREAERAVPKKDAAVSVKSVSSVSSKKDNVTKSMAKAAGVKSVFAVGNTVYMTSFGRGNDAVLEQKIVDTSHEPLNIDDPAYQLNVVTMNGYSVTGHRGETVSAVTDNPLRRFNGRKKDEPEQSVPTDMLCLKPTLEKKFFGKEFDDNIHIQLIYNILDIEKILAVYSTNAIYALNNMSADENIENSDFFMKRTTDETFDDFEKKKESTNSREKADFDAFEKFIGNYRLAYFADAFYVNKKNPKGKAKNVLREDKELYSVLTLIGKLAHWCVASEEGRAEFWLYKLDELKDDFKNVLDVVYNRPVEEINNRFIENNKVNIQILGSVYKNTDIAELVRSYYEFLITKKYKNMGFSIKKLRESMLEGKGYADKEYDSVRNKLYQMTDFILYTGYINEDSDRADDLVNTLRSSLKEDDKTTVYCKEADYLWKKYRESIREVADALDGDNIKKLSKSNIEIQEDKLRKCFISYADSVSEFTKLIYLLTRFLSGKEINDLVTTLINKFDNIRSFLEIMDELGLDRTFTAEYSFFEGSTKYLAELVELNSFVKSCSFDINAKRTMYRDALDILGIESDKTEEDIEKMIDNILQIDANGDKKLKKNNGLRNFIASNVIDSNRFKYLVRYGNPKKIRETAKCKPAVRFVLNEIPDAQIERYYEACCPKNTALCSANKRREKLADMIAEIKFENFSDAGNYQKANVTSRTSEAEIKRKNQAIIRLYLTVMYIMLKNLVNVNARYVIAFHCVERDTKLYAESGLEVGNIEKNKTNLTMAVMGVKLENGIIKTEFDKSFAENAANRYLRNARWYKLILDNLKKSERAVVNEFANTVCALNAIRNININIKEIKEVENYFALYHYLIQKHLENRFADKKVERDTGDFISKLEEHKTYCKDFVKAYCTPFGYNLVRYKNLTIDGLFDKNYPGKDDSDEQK


Biological target: T1, EsCas13d, nuclease-dead
Test: crRNA (strand 1, pre-loaded); Mg2+; 40 mM Tris-HCl pH 7.5, 150 mM NaCl, 6 mM MgCl2, 1 mM DTT, 0.1% Tween-20, 0.2 mg/ml BSA; 25 C; 10 min per concentration, then washed
Conditions: tags: His6-TwinStrep-SUMO cleaved; N-terminal SNAP kept (SNAP-Surface 488); label: 3' end held by stalled T7 RNA polymerase

| Binder | Kd [nM] |
| --- | --- |
| target 1 insG 3' of 8,insU 3' of 6 (mixed) RNA 1: CACCCGUGCAAAAAUGCAGGGGUCUAAAACUGAGCGGAUAACCUCUCUAUGG RNA 2: GGGAAUGGAUCCACAUCUACGAAUUCGUACCAUAGAGAGGUUAUGCCUGCUCACCGAGAUCGGAAGAGCACACGU | 16.5 ± 0.6 |
| target 1 insU 3' of 15,insC 3' of 15 (mixed) RNA 1: CACCCGUGCAAAAAUGCAGGGGUCUAAAACUGAGCGGAUAACCUCUCUAUGG RNA 2: GGGAAUGGAUCCACAUCUACGAAUUCGUACCAUAGAGUCAGGUUAUCCGCUCACCGAGAUCGGAAGAGCACACGU | 28.4 ± 3.2 |
| target 1 G5U,U10G (mixed) RNA 1: CACCCGUGCAAAAAUGCAGGGGUCUAAAACUGAGCGGAUAACCUCUCUAUGG RNA 2: GGGAAUGGAUCCACAUCUACGAAUUCGUACCAUAGAGAGGUGAUCCUCUCACCGAGAUCGGAAGAGCACACGU | 57 ± 5 |
| target 1 U8C,U19G (mixed) RNA 1: CACCCGUGCAAAAAUGCAGGGGUCUAAAACUGAGCGGAUAACCUCUCUAUGG RNA 2: GGGAAUGGAUCCACAUCUACGAAUUCGUACCAGAGAGAGGUUACCCGCUCACCGAGAUCGGAAGAGCACACGU | 76 ± 10 |
| target 1 insU 3' of 7,insU 3' of 6 (mixed) RNA 1: CACCCGUGCAAAAAUGCAGGGGUCUAAAACUGAGCGGAUAACCUCUCUAUGG RNA 2: GGGAAUGGAUCCACAUCUACGAAUUCGUACCAUAGAGAGGUUAUCUCUGCUCACCGAGAUCGGAAGAGCACACGU | 55 ± 4 |
| target 1 A1C,G12U (mixed) RNA 1: CACCCGUGCAAAAAUGCAGGGGUCUAAAACUGAGCGGAUAACCUCUCUAUGG RNA 2: GGGAAUGGAUCCACAUCUACGAAUUCGUACCAUAGAGAGUUUAUCCGCUCCCCGAGAUCGGAAGAGCACACGU | 13.9 ± 2.1 |
| target 1 A14G,G17U (mixed) RNA 1: CACCCGUGCAAAAAUGCAGGGGUCUAAAACUGAGCGGAUAACCUCUCUAUGG RNA 2: GGGAAUGGAUCCACAUCUACGAAUUCGUACCAUAUAGGGGUUAUCCGCUCACCGAGAUCGGAAGAGCACACGU | 78 ± 15 |
| target 1 C6U,U11C (mixed) RNA 1: CACCCGUGCAAAAAUGCAGGGGUCUAAAACUGAGCGGAUAACCUCUCUAUGG RNA 2: GGGAAUGGAUCCACAUCUACGAAUUCGUACCAUAGAGAGGCUAUCUGCUCACCGAGAUCGGAAGAGCACACGU | 9.1 ± 0.6 |
| target 1 insA 3' of 15 (mixed) RNA 1: CACCCGUGCAAAAAUGCAGGGGUCUAAAACUGAGCGGAUAACCUCUCUAUGG RNA 2: GGGAAUGGAUCCACAUCUACGAAUUCGUACCAUAGAGAAGGUUAUCCGCUCACCGAGAUCGGAAGAGCACACGU | 5.9 ± 0.6 |
| target 1 insG 3' of 10,insA 3' of 6 (mixed) RNA 1: CACCCGUGCAAAAAUGCAGGGGUCUAAAACUGAGCGGAUAACCUCUCUAUGG RNA 2: GGGAAUGGAUCCACAUCUACGAAUUCGUACCAUAGAGAGGUUGAUCCAGCUCACCGAGAUCGGAAGAGCACACGU | 41 ± 6 |
| target 1 C6U,U10G (mixed) RNA 1: CACCCGUGCAAAAAUGCAGGGGUCUAAAACUGAGCGGAUAACCUCUCUAUGG RNA 2: GGGAAUGGAUCCACAUCUACGAAUUCGUACCAUAGAGAGGUGAUCUGCUCACCGAGAUCGGAAGAGCACACGU | 15.7 ± 1.1 |
| target 1 A1G,G12A (mixed) RNA 1: CACCCGUGCAAAAAUGCAGGGGUCUAAAACUGAGCGGAUAACCUCUCUAUGG RNA 2: GGGAAUGGAUCCACAUCUACGAAUUCGUACCAUAGAGAGAUUAUCCGCUCGCCGAGAUCGGAAGAGCACACGU | 5.9 ± 0.5 |
| target 1 insA 3' of 5,insG 3' of 3 (mixed) RNA 1: CACCCGUGCAAAAAUGCAGGGGUCUAAAACUGAGCGGAUAACCUCUCUAUGG RNA 2: GGGAAUGGAUCCACAUCUACGAAUUCGUACCAUAGAGAGGUUAUCCGACUGCACCGAGAUCGGAAGAGCACACGU | 5.94 ± 0.29 |
| target 1 insC 3' of 17,insA 3' of 8 (mixed) RNA 1: CACCCGUGCAAAAAUGCAGGGGUCUAAAACUGAGCGGAUAACCUCUCUAUGG RNA 2: GGGAAUGGAUCCACAUCUACGAAUUCGUACCAUAGCAGAGGUUAUACCGCUCACCGAGAUCGGAAGAGCACACGU | 52 ± 7 |
| target 1 insG 3' of 18,insA 3' of 7 (mixed) RNA 1: CACCCGUGCAAAAAUGCAGGGGUCUAAAACUGAGCGGAUAACCUCUCUAUGG RNA 2: GGGAAUGGAUCCACAUCUACGAAUUCGUACCAUAGGAGAGGUUAUCACGCUCACCGAGAUCGGAAGAGCACACGU | 43 ± 4 |
| target 1 C2A,G17C (mixed) RNA 1: CACCCGUGCAAAAAUGCAGGGGUCUAAAACUGAGCGGAUAACCUCUCUAUGG RNA 2: GGGAAUGGAUCCACAUCUACGAAUUCGUACCAUACAGAGGUUAUCCGCUAACCGAGAUCGGAAGAGCACACGU | 57 ± 5 |
| target 1 insU 3' of 21,insU 3' of 14 (mixed) RNA 1: CACCCGUGCAAAAAUGCAGGGGUCUAAAACUGAGCGGAUAACCUCUCUAUGG RNA 2: GGGAAUGGAUCCACAUCUACGAAUUCGUACCUAUAGAGAUGGUUAUCCGCUCACCGAGAUCGGAAGAGCACACGU | 45 ± 9 |
| target 1 insG 3' of 16,insG 3' of 7 (mixed) RNA 1: CACCCGUGCAAAAAUGCAGGGGUCUAAAACUGAGCGGAUAACCUCUCUAUGG RNA 2: GGGAAUGGAUCCACAUCUACGAAUUCGUACCAUAGAGGAGGUUAUCGCGCUCACCGAGAUCGGAAGAGCACACGU | 16.5 ± 1.7 |
| target 1 G12A (mixed) RNA 1: CACCCGUGCAAAAAUGCAGGGGUCUAAAACUGAGCGGAUAACCUCUCUAUGG RNA 2: GGGAAUGGAUCCACAUCUACGAAUUCGUACCAUAGAGAGAUUAUCCGCUCACCGAGAUCGGAAGAGCACACGU | 5.5 ± 0.4 |
| target 1 C4U,U11G (mixed) RNA 1: CACCCGUGCAAAAAUGCAGGGGUCUAAAACUGAGCGGAUAACCUCUCUAUGG RNA 2: GGGAAUGGAUCCACAUCUACGAAUUCGUACCAUAGAGAGGGUAUCCGUUCACCGAGAUCGGAAGAGCACACGU | 21 ± 4 |
| target 1 C7G,U19C (mixed) RNA 1: CACCCGUGCAAAAAUGCAGGGGUCUAAAACUGAGCGGAUAACCUCUCUAUGG RNA 2: GGGAAUGGAUCCACAUCUACGAAUUCGUACCACAGAGAGGUUAUGCGCUCACCGAGAUCGGAAGAGCACACGU | 32.2 ± 2.7 |
| target 1 insU 3' of 5,insU 3' of 5 (mixed) RNA 1: CACCCGUGCAAAAAUGCAGGGGUCUAAAACUGAGCGGAUAACCUCUCUAUGG RNA 2: GGGAAUGGAUCCACAUCUACGAAUUCGUACCAUAGAGAGGUUAUCCGUUCUCACCGAGAUCGGAAGAGCACACGU | 19 ± 4 |
| target 1 C21A (mixed) RNA 1: CACCCGUGCAAAAAUGCAGGGGUCUAAAACUGAGCGGAUAACCUCUCUAUGG RNA 2: GGGAAUGGAUCCACAUCUACGAAUUCGUACAAUAGAGAGGUUAUCCGCUCACCGAGAUCGGAAGAGCACACGU | 24.1 ± 2 |
| target 1 A1U,G12A (mixed) RNA 1: CACCCGUGCAAAAAUGCAGGGGUCUAAAACUGAGCGGAUAACCUCUCUAUGG RNA 2: GGGAAUGGAUCCACAUCUACGAAUUCGUACCAUAGAGAGAUUAUCCGCUCUCCGAGAUCGGAAGAGCACACGU | 5.2 ± 0.5 |
| target 1 G12U (mixed) RNA 1: CACCCGUGCAAAAAUGCAGGGGUCUAAAACUGAGCGGAUAACCUCUCUAUGG RNA 2: GGGAAUGGAUCCACAUCUACGAAUUCGUACCAUAGAGAGUUUAUCCGCUCACCGAGAUCGGAAGAGCACACGU | 10.3 ± 0.5 |
| target 1 G13U,A20C (mixed) RNA 1: CACCCGUGCAAAAAUGCAGGGGUCUAAAACUGAGCGGAUAACCUCUCUAUGG RNA 2: GGGAAUGGAUCCACAUCUACGAAUUCGUACCCUAGAGAUGUUAUCCGCUCACCGAGAUCGGAAGAGCACACGU | ~90 |
| target 1 A1G,G12U (mixed) RNA 1: CACCCGUGCAAAAAUGCAGGGGUCUAAAACUGAGCGGAUAACCUCUCUAUGG RNA 2: GGGAAUGGAUCCACAUCUACGAAUUCGUACCAUAGAGAGUUUAUCCGCUCGCCGAGAUCGGAAGAGCACACGU | 9.4 ± 0.6 |
| target 1 C7A,A20C (mixed) RNA 1: CACCCGUGCAAAAAUGCAGGGGUCUAAAACUGAGCGGAUAACCUCUCUAUGG RNA 2: GGGAAUGGAUCCACAUCUACGAAUUCGUACCCUAGAGAGGUUAUACGCUCACCGAGAUCGGAAGAGCACACGU | 61 ± 22 |
